Results published in the RNAGym collection of RNA variant scans (doi:10.1073/pnas.2313332121).

B1: TPR t1 (parent)
chain: GACCAAUCUGCCCUCAGAGCUCGAGAACAUCUUCGGAUGCAGAGGAGGCAGGCUUCGGUGGCGCGAUAGCGCCAACGUCCUCAACCUCCAAUGCAUCCCACCACAUGAUGAUGCCUGAAGAGCCUUGGUUUUUUG

Variants of: B1
Assay: polymerase ribozyme fitness, log enrichment relative to wild type (log ratio); higher = more active; in vitro selection for triplet polymerase activity
In short: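 Input and output libraries were sequenced on Illumina after a single in vitro selection round, run in triplicate on PCR-built, transcribed mutant libraries of each subunit of a heterodimeric triplet polymerase ribozyme. Selection annealed libraries to a biotinylated primer, the partner subunit and triplets, incubated them frozen at −7 °C, then gel-excised extended constructs for streptavidin-bead capture and RT-PCR. Genotypes with ≥10 input reads and ≥1 read per output were kept. Fitness is the logarithm, taken in base 2, of genotype enrichment divided by wild-type enrichment, using inverse-variance-weighted replicate averages.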

| Variant | polymerase ribozyme fitness (log ratio) |
| --- | --- |
| A5C G58A G60C | -0.634 |
| C76G U81C C94A G117A | -2.22 |
| G52U G57C C97G C114A A119U | -6.02 |
| A26U U87G | -2.62 |
| G44A C49A C85G C94A | -3.35 |
| U9A A24C U59C A91U A111C | -6.66 |
| C53U C70U | -0.962 |
| C72A G107A | -4.95 |
| G60U C85A A103U A111C | -4.74 |
| C40U C73A | -0.621 |
| C3G C70G | -4.26 |
| G39U G63A | -1.75 |
| G42U G120U | -1.31 |
| C11U C76A | -0.763 |
| G36A C70A | -2.23 |
| G35A U87A | -3.5 |
| A5C C40U U67C C104G C123G G128A | -6.57 |
| C73U C89U C101U | -0.461 |
| U21A C123G G128C | -1.09 |
| A26G C40U G63C C79A C101U G117A | -5.91 |
| C11A C56A | -1.49 |

| Variant | polymerase ribozyme fitness (log ratio) |
| --- | --- |
| U106C G117C | -3.72 |
| G44C G69U A121C | 1.9 |
| C15U G36A | -1.76 |
| C70G C115G | -3.68 |
| C40G A43C G69U G120C | -0.592 |
| A6G G48U G52C | -2.21 |
| C13U C20G G63C | -4.8 |
| A18U G42U A74G | -1.91 |
| G71A C123U | 0.153 |
| G42U G47A | -1.67 |
| G19A A83G C114G G122C | -4.41 |
| U9G A41U U81C U96A | -2.65 |
| A37G G60U U112C C123G | -0.195 |
| U14C G42U G44A G61U | -2.82 |
| U9A A75U U96G | -0.383 |
| G47U A50U U59C C73A U78A U133A | -2.31 |
| U7G A37C A95C | 0.483 |
| C8G C12G C56U U106G U112G A118C U133G | -1.11 |
| C8G A18U G44U G47A C102A G120A A121C C124U | -6.31 |
| A91U C115U | -2.04 |
| C64U A74G U78A | -2.93 |

| Variant | polymerase ribozyme fitness (log ratio) |
| --- | --- |
| C53A C70U | 0.0165 |
| G52U G69C | -1.54 |
| A5G C13A C53U U59G G69C | -4.36 |
| A26U C89A | -6.44 |
| C56U U129A | -1.15 |
| G17U A29U C72U | -4.39 |
| A26U G93U | -3.09 |
| A46U G48A C79G C82U G120A C123A | -3.09 |
| G39C G71U | -0.983 |
| C4G C40U A66C C86G C97A C115G | -6.24 |
| A83U G120U U130C | -0.376 |
| A37G C40U G51U C82G | -3.82 |
| C12U G47A C79U U87C | 0.112 |
| C72G U87G G117A | -2.09 |
| C53A G61C U78C C85U G93A | -0.976 |
| A41U C64U U87C U106C C123A | -1.38 |
| G17A U55A G63U A84G | -7.59 |
| G71A A118G | -0.577 |
| C11U C62U | -0.515 |
| C56U C80U | -1.17 |
| C34U G120A A121C | -4.71 |

| Variant | polymerase ribozyme fitness (log ratio) |
| --- | --- |
| C53U U92G | -2.82 |
| U32C C49A | -0.089 |
| G61U U81A C82U A119G G122U U125A U129C | -1.8 |
| C12G U59G G60U A95U G110C | -5.19 |
| A75G G113C | -2.4 |
| G36A G110U A121U | -2.05 |
| G36U G48U | -2.23 |
| U38A G42U G63C C79U | -3.1 |
| C8G G39A G63U A84U | -1.03 |
| U9A G44A G69A C72U U87C | -3.54 |
| C73U U106A | -0.212 |
| A46G A50G U87C | -0.00584 |
| C11G G57U U67G G120A | -6.74 |
| A41C G113C | -2.86 |
| U7A A27C C49U U55G | -4.4 |
| G47U G58C C82U C86U | -1.04 |
| C72G C82U C102A G120A | -1.89 |
| G39U G61C | -1.66 |
| A5C C13U G60U | -0.844 |
| G61U U78C G113C U130G | -2.86 |
| G44U A50U C101A C115A | -2.8 |
